Positions of bridges follow the written chain, without caps; N, C: chain ends. No end group written: not given here.
T1: hu-IL-2Rγc subunit (human), P31785
T1 chain: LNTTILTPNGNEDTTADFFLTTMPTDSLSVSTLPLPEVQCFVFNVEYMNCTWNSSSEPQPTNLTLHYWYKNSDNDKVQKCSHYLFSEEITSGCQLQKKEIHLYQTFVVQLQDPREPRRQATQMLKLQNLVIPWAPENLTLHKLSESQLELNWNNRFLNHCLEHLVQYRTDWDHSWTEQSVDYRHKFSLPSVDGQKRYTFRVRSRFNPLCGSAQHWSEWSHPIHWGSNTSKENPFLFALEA

T2: hu-IL-2Rβ subunit (human, UniProt P14784 27-240, limits assumed)
T2 construct: also called human interleukin-2 receptor subunit β; CD122
T2 sequence (looked up): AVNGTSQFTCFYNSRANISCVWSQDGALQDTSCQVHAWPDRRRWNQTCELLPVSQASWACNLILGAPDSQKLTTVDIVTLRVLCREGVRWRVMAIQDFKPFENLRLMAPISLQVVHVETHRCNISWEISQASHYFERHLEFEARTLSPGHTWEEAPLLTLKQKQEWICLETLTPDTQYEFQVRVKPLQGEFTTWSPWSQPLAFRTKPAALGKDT

B1: SEQ ID NO 638 (peptide)
peptide: IECEEWRGVELCWQ
modifications: not checked
B2: SEQ ID NO 639 (peptide)
peptide: PEGREVVVCRDWYGVELCWQ
modifications: not checked
B3: SEQ ID NO 640 (peptide)
peptide: IWGRTVVECQDWEGVELCWQ
modifications: not checked
B4: SEQ ID NO 560 (peptide)
peptide: WYPCWGELCDLD
B5: SEQ ID NO 568 (peptide)
peptide: AFFHDCFFAKAGDLCDFFDD
B6: SEQ ID NO 569 (peptide)
peptide: DFFHDCFFAKVGDLCDFFFG
B7: SEQ ID NO 571 (peptide)
peptide: EHFHDCFFAKVGDLCDIFGN
B8: SEQ ID NO 570 (peptide)
peptide: EGFHDCFFAKVGDLCDIFGH
B9: SEQ ID NO 572 (peptide)
peptide: EHFHDCFFAKVGDLCDKFGQ
B10: SEQ ID NO 82 (peptide)
peptide: WYPCYRARLGELCDLD
B11: SEQ ID NO 118 (peptide)
peptide: QDGWLPCWMAQLGELCDLEYKR
B12: SEQ ID NO 573 (peptide)
peptide: HIFHDCFIAKVGDLCDLFHS
B13: SEQ ID NO 119 (peptide)
peptide: NRRWYPCWMAQLGELCDLDSRP
B14: SEQ ID NO 619 (peptide)
peptide: VQYKKCWMAQLGDLCELDPS
modifications: not fully specified (bridges); cysteine pairing not given here
B15: SEQ ID NO 620 (peptide)
peptide: YPCHMAQLGELCDLWSWGDI
modifications: not fully specified (bridges); cysteine pairing not given here
B16: SEQ ID NO 621 (peptide)
peptide: YPCWMAQLGELCDL
B17: SEQ ID NO 121 (peptide)
peptide: KSNFFPCWIAQLGQLCDLEPET
B18: SEQ ID NO 122 (peptide)
peptide: FYPCWMANLGELCDLDFLRELN
B19: SEQ ID NO 123 (peptide)
peptide: HASWLPCWLAQLGELCDLEPNP
B20: SEQ ID NO 124 (peptide)
peptide: NGAWYPCWMAQVGELCDLEERW
B21: SEQ ID NO 126 (peptide)
peptide: RQAWYPCWMAQLGELCDLEAEL
B22: SEQ ID NO 83 (peptide)
peptide: WQREWRWFPCWMAKLGDMCDLD
B23: SEQ ID NO 128 (peptide)
peptide: NNSREGWFPCWLAKLGDLCDLD
B24: SEQ ID NO 129 (peptide)
peptide: YYPCWMAQLGELCDLE
B25: SEQ ID NO 131 (peptide)
peptide: SWHAETWYPCWLAQVGELCDLD
B26: SEQ ID NO 132 (peptide)
peptide: KMHKAVWLPCWMAQVGELCDLE
B27: SEQ ID NO 135 (peptide)
peptide: KLQSWRWYPCWMAQLGELCDLD
B28: SEQ ID NO 136 (peptide)
peptide: NEPEGGFYPCWLAQLGELCDLH
modifications: disulfide 10-19 (inferred)
B29: SEQ ID NO 84 (peptide)
peptide: QDEAVEWFPCWMARLGELCDLE
B30: SEQ ID NO 140 (peptide)
peptide: AKGWDTWKPCWLANLGELCDLE
B31: SEQ ID NO 141 (peptide)
peptide: RDESAGYYPCWIAQLGELCDLE
B32: SEQ ID NO 145 (peptide)
peptide: QGPVRLWYPCWMAQLGELCDLD
B33: SEQ ID NO 146 (peptide)
peptide: WYPCWMAQPGELCDVD
B34: SEQ ID NO 85 (peptide)
peptide: YYPCWMARLGELCDLD
B35: SEQ ID NO 149 (peptide)
peptide: VRPMGVWYPCWIAQLGELCDLV
B36: SEQ ID NO 150 (peptide)
peptide: VPRWYPCWIAQLGELCDLDSDD
B37: SEQ ID NO 151 (peptide)
peptide: YRGWLPCWRAKLGDLCDLGQPM
modifications: disulfide 7-16 (inferred)
B38: SEQ ID NO 152 (peptide)
peptide: GEAWYPCWLARLGELCDMDPRV
B39: SEQ ID NO 153 (peptide)
peptide: WYPCWMAQLGELCDLDESTRLT
modifications: disulfide 4-13 (inferred)
B40: SEQ ID NO 154 (peptide)
peptide: IGSWWPCWMAQLGELCDLEPEL
B41: SEQ ID NO 155 (peptide)
peptide: GTTWYPCWLAQLGELCDLDVLE
B42: SEQ ID NO 156 (peptide)
peptide: WWPCWMAQLGDLCDLEETSGGT
B43: SEQ ID NO 157 (peptide)
peptide: WYPCWMAQLGELCDLGPTESNL
B44: SEQ ID NO 86 (peptide)
peptide: SVVVNNWLPCWMAQLGELCDLD
B45: SEQ ID NO 158 (peptide)
peptide: WYPCWMANLGELCDLEYPSWAQ
B46: SEQ ID NO 159 (peptide)
peptide: RGMCYPCWFARLGELCDLECDQ
B47: SEQ ID NO 160 (peptide)
peptide: WYPCWMAQLGELCDLDAGARHL
B48: SEQ ID NO 161 (peptide)
peptide: KSGWYPCWMAKLGELCDLEAQP
B49: SEQ ID NO 162 (peptide)
peptide: GPRFYPCWIAQLGELCDLEDMG
B50: SEQ ID NO 163 (peptide)
peptide: RVTWYPCWMAQLGELCDLEESV
B51: SEQ ID NO 164 (peptide)
peptide: WLPCWMAQLGDLCDLEQYVPLP
B52: SEQ ID NO 165 (peptide)
peptide: YLPCWMAHLGELCDLDSPLKAR
B53: SEQ ID NO 166 (peptide)
peptide: WYPCWMAQLGELCDLDDHWPAM
B54: SEQ ID NO 167 (peptide)
peptide: WYPCWRAQLGELCDLDPPIAVE
B55: SEQ ID NO 168 (peptide)
peptide: WYPCWMANLGELCDLEAERSPV
B56: SEQ ID NO 169 (peptide)
peptide: RDQYYPCWMAQLGELCDLDEVF
B57: SEQ ID NO 171 (peptide)
peptide: WYPCWIARLGELCDLETSGGFP
B58: SEQ ID NO 172 (peptide)
peptide: SGHCYPCWLAGLGELCDLNCG
B59: SEQ ID NO 178 (peptide)
peptide: VRAWYPCWIARLGELCDLEVD
B60: SEQ ID NO 179 (peptide)
peptide: WFPCWMAQLGEVCDLD
B61: SEQ ID NO 180 (peptide)
peptide: WYPCHMAKLRELCDLD
B62: SEQ ID NO 181 (peptide)
peptide: SLPCWMAQLGDLCELH

Target: T1, hu-IL-2Rγc subunit (human), P31785
Test: phage ELISA competition assay

B1 and B2 cannot be ordered by IC50: under 10 µM for the first, under 10 µM for the second.

B3 showed an IC50 of under 10 µM.

target: T2, hu-IL-2Rβ subunit; test: phage ELISA competition assay

B4 and B5 cannot be ordered by IC50: under 100 µM for the first, under 100 µM for the second.

B6 and B7 cannot be ordered by IC50: under 100 µM for the first, under 100 µM for the second.

B8 and B9 cannot be ordered by IC50: under 100 µM for the first, under 100 µM for the second.

B10 and B11 cannot be ordered by IC50: under 100 µM for the first, under 100 µM for the second.

B12 and B13 cannot be ordered by IC50: under 100 µM for the first, under 100 µM for the second.

B14 and B15 cannot be ordered by IC50: under 10 µM for the first, under 10 µM for the second.

B16 and B17 cannot be ordered by IC50: under 10 µM for the first, under 100 µM for the second.

B18 and B19 cannot be ordered by IC50: under 100 µM for the first, under 100 µM for the second.

B20 and B21 cannot be ordered by IC50: under 100 µM for the first, under 100 µM for the second.

B22 and B23 cannot be ordered by IC50: under 100 µM for the first, under 100 µM for the second.

B24 and B25 cannot be ordered by IC50: under 100 µM for the first, under 100 µM for the second.

B26 and B27 cannot be ordered by IC50: under 100 µM for the first, under 100 µM for the second.

B28 and B29 cannot be ordered by IC50: under 100 µM for the first, under 100 µM for the second.

B30 and B31 cannot be ordered by IC50: under 100 µM for the first, under 100 µM for the second.

B32 and B33 cannot be ordered by IC50: under 100 µM for the first, under 100 µM for the second.

B34 and B35 cannot be ordered by IC50: under 100 µM for the first, under 100 µM for the second.

B36 and B37 cannot be ordered by IC50: under 100 µM for the first, under 100 µM for the second.

B38 and B39 cannot be ordered by IC50: under 100 µM for the first, under 100 µM for the second.

B40 and B41 cannot be ordered by IC50: under 100 µM for the first, under 100 µM for the second.

B42 and B43 cannot be ordered by IC50: under 100 µM for the first, under 100 µM for the second.

B44 and B45 cannot be ordered by IC50: under 100 µM for the first, under 100 µM for the second.

B46 and B47 cannot be ordered by IC50: under 100 µM for the first, under 100 µM for the second.

B48 and B49 cannot be ordered by IC50: under 100 µM for the first, under 100 µM for the second.

B50 and B51 cannot be ordered by IC50: under 100 µM for the first, under 100 µM for the second.

B52 and B53 cannot be ordered by IC50: under 100 µM for the first, under 100 µM for the second.

B54 and B55 cannot be ordered by IC50: under 100 µM for the first, under 100 µM for the second.

B56 and B57 cannot be ordered by IC50: under 100 µM for the first, under 100 µM for the second.

B58 and B59 cannot be ordered by IC50: under 100 µM for the first, under 100 µM for the second.

B60 and B61 cannot be ordered by IC50: under 100 µM for the first, under 100 µM for the second.

With B62 the IC50 was under 100 µM.

Target: T1, hu-IL-2Rγc subunit (human), P31785
Test: not given

B1 and B2 cannot be ordered by IC50: under 100 µM for the first, under 100 µM for the second.

B3 showed an IC50 of under 100 µM.

Reference: patent US20240101959A1, “USE OF IL-2R-BETA-GAMMA AGONIST PEPTIDES IN CELL MANUFACTURING” (MEDIKINE, INC., priority 2022, published 2024)
